The results in this text go back to PMC10219370, “Exploring Redox Modulation of Plant UDP-Glucose Pyrophosphorylase” (International Journal of Molecular Sciences, 2023).

For orientation: Km means the substrate concentration at which the rate is half of its maximum.

Common to all, as to test: purified protein
Substrate in series [1]: O=c1ccn([C@@H]2O[C@H](CO[P@@](=O)(O)O[P@@](=O)(O)O[C@H]3O[C@H](CO)[C@@H](O)[C@H](O)[C@H]3O)[C@@H](O)[C@H]2O)c(=O)[nH]1
The series is classed as biochemical, Saccharum hybrid cultivar. The conditions noted are these: untreated enzyme, PPi fixed at 1 mM, 5 mM MgCl2, Hepes-NaOH pH 7.5, room temperature.

Substrate in series [2]: O=P(O)(O)OP(=O)(O)O
The series is classed as biochemical, Saccharum hybrid cultivar. Conditions: untreated enzyme, UDPG fixed at 2 mM, 5 mM MgCl2, Hepes-NaOH pH 7.5, room temperature.

Substrate in series [3]: O=c1ccn([C@@H]2O[C@H](CO[P@@](=O)(O)O[P@@](=O)(O)O[C@H]3O[C@H](CO)[C@@H](O)[C@H](O)[C@H]3O)[C@@H](O)[C@H]2O)c(=O)[nH]1
Type of series: biochemical, Hordeum vulgare. The conditions noted are these: reduced enzyme (2 mM DTT overnight), 5 mM MgCl2, Hepes-NaOH pH 7.5, room temperature.

Substrate in series [4]: O=P(O)(O)OP(=O)(O)O
Type of series: biochemical, Hordeum vulgare. Conditions: reduced enzyme (2 mM DTT overnight), 5 mM MgCl2, Hepes-NaOH pH 7.5, room temperature.

B1: sugarcane UGPase (Saccharum hybrid cultivar SP80-3280) (protein)
chain: MAAAAAAEVSVDEKLDKLRAEVAKLDQISENEKAGFISLVSRYLSGEAEQIEWSKIQTPTDEVVVPYDTLASPPEDLEETKKLLDKLVVLKLNGGLGTTMGCTGPKSVIEVRNGFTFLDLIVIQIESLNKKYGCSVPLLLMNSFNTHDDTQKIVEKYSNSNIEIHTFNQSQYPRIVTEDFLPLPSKGKSGKDGWYPPGHGDVFPSLNNSGKLDILLAQGKEYVFIANSDNLGAIVDIKILNHLINNQNEYCMEVTPKTLADVKGGTLISYEGRVQLLEIAQVPDEHVNEFKSIEKFKIFNTNNLWVNLKAIKRLVEAEALKMEIIPNPKEVDGVKVLQLETAAGAAIRFFDKAIGINVPRSRFLPVKATSDLLLVQSDLYTLVDGFVIRNPARANPANPSIELGPEFKKVANFLARFKSIPSIVELDSLKVSGDVWFGSGITLKGKVTITAKSGVKLEIPDGAVLENKDVNGPEDL
notes: active as monomer
For the protein B1, the Km in the series “purified protein [1]” is 80 µM; in the series “purified protein [2]”, 40 µM.

B2: sugarcane UGPase (Saccharum hybrid cultivar SP80-3280; C102S) (protein)
chain: MAAAAAAEVSVDEKLDKLRAEVAKLDQISENEKAGFISLVSRYLSGEAEQIEWSKIQTPTDEVVVPYDTLASPPEDLEETKKLLDKLVVLKLNGGLGTTMGSTGPKSVIEVRNGFTFLDLIVIQIESLNKKYGCSVPLLLMNSFNTHDDTQKIVEKYSNSNIEIHTFNQSQYPRIVTEDFLPLPSKGKSGKDGWYPPGHGDVFPSLNNSGKLDILLAQGKEYVFIANSDNLGAIVDIKILNHLINNQNEYCMEVTPKTLADVKGGTLISYEGRVQLLEIAQVPDEHVNEFKSIEKFKIFNTNNLWVNLKAIKRLVEAEALKMEIIPNPKEVDGVKVLQLETAAGAAIRFFDKAIGINVPRSRFLPVKATSDLLLVQSDLYTLVDGFVIRNPARANPANPSIELGPEFKKVANFLARFKSIPSIVELDSLKVSGDVWFGSGITLKGKVTITAKSGVKLEIPDGAVLENKDVNGPEDL
notes: active as monomer
Regarding B2, the Km came to 110 µM in the series “purified protein [1]” and 230 µM in “purified protein [2]”.

B3: barley UGPase (Hordeum vulgare) (protein)
chain: MAAAAVAADSKIDGLRDAVAKLGEISENEKAGFISLVSRYLSGEAEQIEWSKIQTPTDEVVVPYDTLAPPPEDLDAMKALLDKLVVLKLNGGLGTTMGCTGPKSVIEVRNGFTFLDLIVIQIESLNKKYGCSVPLLLMNSFNTHDDTQKIVEKYSNSNIEIHTFNQSQYPRIVTEDFLPLPSKGQTGKDGWYPPGHGDVFPSLNNSGKLDTLLSQGKEYVFVANSDNLGAIVDIKILNHLIHNQNEYCMEVTPKTLADVKGGTLISYEGRVQLLEIAQVPDEHVDEFKSIEKFKIFNTNNLWVNLKAIKRLVDAEALKMEIIPNPKEVDGVKVLQLETAAGAAIRFFEKAIGINVPRSRFLPVKATSDLLLVQSDLYTLVDGYVIRNPARVKPSNPSIELGPEFKKVANFLARFKSIPSIVELDSLKVSGDVSFGSGVVLKGNVTIAAKAGVKLEIPDGAVLENKDINGPEDI
notes: active as monomer
In the case of B3, the Km in “purified protein [3]” (PPi fixed at 1 mM) turned out to be 40 µM; in the series “purified protein [4]” (UDPG fixed at 1 mM), 30 µM.

B4: barley UGPase (Hordeum vulgare; C99S) (protein)
chain: MAAAAVAADSKIDGLRDAVAKLGEISENEKAGFISLVSRYLSGEAEQIEWSKIQTPTDEVVVPYDTLAPPPEDLDAMKALLDKLVVLKLNGGLGTTMGSTGPKSVIEVRNGFTFLDLIVIQIESLNKKYGCSVPLLLMNSFNTHDDTQKIVEKYSNSNIEIHTFNQSQYPRIVTEDFLPLPSKGQTGKDGWYPPGHGDVFPSLNNSGKLDTLLSQGKEYVFVANSDNLGAIVDIKILNHLIHNQNEYCMEVTPKTLADVKGGTLISYEGRVQLLEIAQVPDEHVDEFKSIEKFKIFNTNNLWVNLKAIKRLVDAEALKMEIIPNPKEVDGVKVLQLETAAGAAIRFFEKAIGINVPRSRFLPVKATSDLLLVQSDLYTLVDGYVIRNPARVKPSNPSIELGPEFKKVANFLARFKSIPSIVELDSLKVSGDVSFGSGVVLKGNVTIAAKAGVKLEIPDGAVLENKDINGPEDI
notes: active as monomer
As for B4, the Km is 110 µM in “purified protein [3]” (PPi fixed at 5 mM) and 310 µM in “purified protein [4]” (UDPG fixed at 2 mM).
